According to patent publication US20060067886A1, “Gastrin receptor-avid peptide conjugates” (priority 1997, published 2006):
“And” between values parts separate entries of the source, which are not always exact repeats. Identical values can stand only once.

Assays:
[1] = system: PC-3 human tumor xenografts; experiment: in vivo
[2] = Stability of 177Lu conjugate (RCP, HPLC recovery); format: physicochemical; conditions: wide range of pH values, 24 hours
Procedure: Under identical chromatographic conditions, DOTA-8-Aoc-BBN[7-14]NH2 has a retention time of 20.5 minutes, allowing for peak purification of the radiolabeled conjugate.
To 50 μl (3.4×10^−8 mols) of DOTA-8-Aoc-BBN[7-14]NH2 in 50 μL of 0.2M Ammonium Acetate was added 150 μL of 0.4M Ammonium Acetate. To this solution was added 50 μL of 177LuCl3 (2 mCi in 0.05N HCl, Missouri University Research Reactor). The solution was allowed to incubate at […] for 1 hour, after which […] of 0.002M EDTA was added in order to scavenge uncomplexed Lutetium. Quality control of the final product was determined by reversed-phase HPLC. Peak purification of the labeled species was performed by collecting the sample from the HPLC eluant, into a solution of 1 mg/mL bovine serum albumin/0.1M Na2HPO4. All further analyses were carried out using the HPLC-purified products.
HPLC analysis of each of the new compounds was performed using an analytical C-18 reversed phase column (Phenomenex, 250×4.6 mm, 5 μm). The mobile phase consisted of a linear gradient system, with solvent A corresponding to 100% water with 0.1% trifluoroacetic acid and solvent B corresponding to 100% acetonitrile with 0.1% trifluoroacetic acid. […]

[3] = Biodistribution of radiometal-DOTA-BBN conjugates in CF1 normal mice; conditions: 1 hour post-injection

CSCC[C@H](NC(=O)[C@H](CC(C)C)NC(=O)[C@H](Cc1cnc[nH]1)NC(=O)CNC(=O)[C@@H](NC(=O)[C@H](C)NC(=O)[C@H](Cc1c[nH]c2ccccc12)NC(=O)[C@H](CCC(N)=O)NC(=O)CCCCCCCNC(=O)CN1CCN(CC(=O)O)CCN(CC(=O)O)CCN(CC(=O)O)CC1)C(C)C)C(N)=O [177Lu-DOTA-8-Aoc-BBN[7-14]NH2] [metal not drawn]
Avg % ID, Blood ([1]; 1 hr): 0.62±0.44 % ID | Avg % ID, Carcass ([1]; 1 hr): 6.18 ± 1.01 % ID | Avg % ID, L. Intestine ([1]; 1 hr): 3.64 ± 0.72 % ID | Avg % ID, Muscle ([1]; 1 hr): 0.01 + 0.02 % ID | Avg % ID, Pancreas ([1]; 1 hr): 9.70 ± 1.12 % ID | Avg % ID, S. Intestine ([1]; 1 hr): 8.20 ± 1.72 % ID | Avg % ID, Stomach ([1]; 1 hr): 0.61 ± 0.09 % ID | Avg % ID, Tumor ([1]; 1 hr): 1.15 ± 0.72 % ID | Avg % ID, Urine ([1]; 1 hr): 67.41±2.45 % ID | Avg % ID/gm, Heart ([1]; 1 hr): 0.15 ± 0.22 % ID/gm | Avg % ID/gm, Kidney ([1]; 1 hr): 4.70 ± 0.95 % ID/gm | Avg % ID/gm, L. Intestine ([1]; 1 hr): 3.29 ± 0.61 % ID/gm | Avg % ID/gm, Liver ([1]; 1 hr): 0.30 ± 0.05 % ID/gm | Avg % ID/gm, Lung ([1]; 1 hr): 0.18 ± 0.09 % ID/gm | Avg % ID/gm, Muscle ([1]; 1 hr): 0.11 ± 0.13 % ID/gm | Avg % ID/gm, Pancreas ([1]; 1 hr): 38.53 ± 3.61 % ID/gm | Avg % ID/gm, S. Intestine ([1]; 1 hr): 5.60 ± 0.46 % ID/gm | Avg % ID/gm, Spleen ([1]; 1 hr): 0.33 ± 0.51 % ID/gm | Avg % ID/gm, Stomach ([1]; 1 hr): 1.38 ± 0.52 % ID/gm | Avg % ID/gm, Tumor ([1]; 1 hr): 4.22±1.09 % ID/gm | Avg % ID, Blood ([1]; 4 hrs): 0.12 ± 0.11 % ID | Avg % ID, Carcass ([1]; 4 hrs): 2.52 ± 1.18 % ID | Avg % ID, Heart ([1]; 4 hrs): 0.01 + 0.02 % ID | Avg % ID, Kidney ([1]; 4 hrs): 0.61 ± 0.08 % ID | Avg % ID, L. Intestine ([1]; 4 hrs): 7.28 ± 4.23 % ID | Avg % ID, Liver ([1]; 4 hrs): 0.15 ± 0.03 % ID | Avg % ID, Lung ([1]; 4 hrs): 0.05 + 0.09 % ID | Avg % ID, Muscle ([1]; 4 hrs): 0.02 + 0.03 % ID | Avg % ID, Pancreas ([1]; 4 hrs): 5.23 ± 1.68 % ID | Avg % ID, S. Intestine ([1]; 4 hrs): 2.51 ± 0.75 % ID | Avg % ID, Spleen ([1]; 4 hrs): 0.05 ± 0.02 % ID | Avg % ID, Stomach ([1]; 4 hrs): 0.22 ± 0.06 % ID | Avg % ID, Tumor ([1]; 4 hrs): 0.78 ± 0.27 % ID | Avg % ID, Urine ([1]; 4 hrs): 79.76 ± 6.48 % ID | Avg % ID/gm, Blood ([1]; 4 hrs): 0.08 ± 0.07 % ID/gm | Avg % ID/gm, Heart ([1]; 4 hrs): 0.07 ± 0.13 % ID/gm | Avg % ID/gm, Kidney ([1]; 4 hrs): 2.18 ± 0.31 % ID/gm | Avg % ID/gm, L. Intestine ([1]; 4 hrs): 7.29 ± 3.73 % ID/gm | Avg % ID/gm, Liver ([1]; 4 hrs): 0.13 ± 0.02 % ID/gm | Avg % ID/gm, Lung ([1]; 4 hrs): 0.11 ± 0.15 % ID/gm | Avg % ID/gm, Muscle ([1]; 4 hrs): 0.15 ± 0.21 % ID/gm | Avg % ID/gm, Pancreas ([1]; 4 hrs): 22.18 ± 4.66 % ID/gm | Avg % ID/gm, S. Intestine ([1]; 4 hrs): 1.93 ± 0.96 % ID/gm | Avg % ID/gm, Spleen ([1]; 4 hrs): 0.60 ± 0.36 % ID/gm | Avg % ID/gm, Stomach ([1]; 4 hrs): 0.34 ± 0.34 % ID/gm | Avg % ID/gm, Tumor ([1]; 4 hrs): 3.03±0.91 % ID/gm | Avg % ID, Blood ([1]; 24 hrs): 0.01 + 0.02 % ID | Avg % ID, Carcass ([1]; 24 hrs): 2.08 + 3.14 % ID | Avg % ID, Kidney ([1]; 24 hrs): 0.17 ± 0.06 % ID | Avg % ID, L. Intestine ([1]; 24 hrs): 1.75 ± 0.23 % ID | Avg % ID, Muscle ([1]; 24 hrs): 0.02 + 0.03 % ID | Avg % ID, Pancreas ([1]; 24 hrs): 1.31 ± 0.45 % ID | Avg % ID, S. Intestine ([1]; 24 hrs): 0.67 ± 0.12 % ID | Avg % ID, Spleen ([1]; 24 hrs): 0.01 + 0.01 % ID | Avg % ID, Stomach ([1]; 24 hrs): 0.09 ± 0.06 % ID | Avg % ID, Tumor ([1]; 24 hrs): 0.29 ± 0.18 % ID | Avg % ID, Urine ([1]; 24 hrs): 85.9±1.4 % ID and 85.85 ± 1.39 % ID | Avg % ID/gm, Blood ([1]; 24 hrs): 0.01 ± 0.01 % ID/gm | Avg % ID/gm, Heart ([1]; 24 hrs): 0.06 ± 0.09 % ID/gm | Avg % ID/gm, Kidney ([1]; 24 hrs): 0.60 ± 0.20 % ID/gm | Avg % ID/gm, L. Intestine ([1]; 24 hrs): 1.90 ± 0.53 % ID/gm | Avg % ID/gm, Lung ([1]; 24 hrs): 0.14 ± 0.26 % ID/gm | Avg % ID/gm, Muscle ([1]; 24 hrs): 0.10 ± 0.17 % ID/gm | Avg % ID/gm, Pancreas ([1]; 24 hrs): 4.97 ± 2.28 % ID/gm | Avg % ID/gm, S. Intestine ([1]; 24 hrs): 0.48 ± 0.14 % ID/gm | Avg % ID/gm, Spleen ([1]; 24 hrs): 0.08 ± 0.10 % ID/gm | Avg % ID/gm, Stomach ([1]; 24 hrs): 0.19 ± 0.13 % ID/gm | Avg % ID/gm, Tumor ([1]; 24 hrs): 1.54±1.14 % ID/gm | stability of the conjugate (RCP) [2]: stability of the conjugate over a wide range of pH values over a time course of 24 hours | Avg % ID, Blood [3]: 0.20 ± 0.15 % ID | Avg % ID, Carcass [3]: 4.95 ± 1.41 % ID | Avg % ID, Heart [3]: 0.02 ± 0.04 % ID | Avg % ID, Kidney [3]: 1.62 ± 0.14 % ID | Avg % ID, L. Intestine [3]: 4.63 ± 0.57 % ID | Avg % ID, Liver [3]: 0.31 ± 0.05 % ID | Avg % ID, Muscle [3]: 0.02 ± 0.05 % ID | Avg % ID, Pancreas [3]: 7.01 ± 1.42 % ID | Avg % ID, S. Intestine [3]: 9.55 ± 2.37 % ID | Avg % ID, Spleen [3]: 0.16 ± 0.05 % ID | Avg % ID, Stomach [3]: 0.51 ± 0.15 % ID | Avg % ID/gm, Blood [3]: 0.14 ± 0.10 % ID/gm | Avg % ID/gm, Heart [3]: 0.19 ± 0.36 % ID/gm | Avg % ID/gm, Kidney [3]: 4.97 ± 0.71 % ID/gm | Avg % ID/gm, L. Intestine [3]: 6.17 ± 0.79 % ID/gm | Avg % ID/gm, Liver [3]: 0.23 ± 0.05 % ID/gm | Avg % ID/gm, Lung [3]: 0.20 ± 0.21 % ID/gm | Avg % ID/gm, Muscle [3]: 0.17 ± 0.39 % ID/gm | Avg % ID/gm, Pancreas [3]: 30.83 ± 1.89 % ID/gm | Avg % ID/gm, S. Intestine [3]: 6.47 ± 1.24 % ID/gm | Avg % ID/gm, Spleen [3]: 1.23 ± 0.59 % ID/gm | Avg % ID/gm, Stomach [3]: 1.41 ± 0.44 % ID/gm
